# Source: the RNAGym collection of RNA variant scans (doi:10.7554/elife.80360)
# B1: Twister Ribozyme (parent)
# chain: AACACUGCCAAUGCCGGUCCCAAGCCCGGAUAAAAGUGGAGGGGGCGG
# Variants of: B1
# Experiment: self-cleavage, relative activity (ratio to wild type); higher = more cleavage; co-transcriptional
row,Variant,self-cleavage
1,G41U G42C,0.164
2,A23C G41U,0.118
3,G29A G44U,0.922
4,C5U A30U,0.752
5,G13C G43C,0.105
6,C8A G29A,0.327
7,U12A G13A,0.89
8,U12G U37G,0.653
9,C9G C21A,0.0451
10,U18C G39U,0.104
11,C25A C27U,0.136
12,C9G G28U,0.428
13,C15A G36U,0.142
14,C3A G17U,0.0649
15,G42A G43U,0.134
16,A11U G28A,1.02
17,A11C C21G,0.118
18,A2G G13A,0.131
19,U6A C8G,0.106
20,U31C A40C,0.249
21,A2C U37G,0.057
22,G7U C8A,0.0463
23,U18C G41A,0.137
24,G36U U37G,0.37

row,Variant,self-cleavage
1,C15A C25G,0.192
2,C15U,0.975
3,A11G G29A,0.772
4,G28A G47C,0.283
5,G28C G29C,0.865
6,A1U A10C,0.0358
7,C9G A11G,0.715
8,A1C C14U,0.19
9,C15A U18C,0.104
10,C5G C9U,0.13
11,G13U G43C,0.137
12,A4C U37C,0.122
13,U6G A10G,0.644
14,G16U G39C,0.173
15,U12G C20G,0.249
16,A1U G44C,0.0624
17,G7U G28U,0.0862
18,C5U U12C,0.769
19,G16A A23U,0.228
20,C20A C21U,0.0931
21,A4G A22C,1.01
22,C9G G44A,0.731
23,A23U A32G,0.45
24,C14G G45C,0.0594

row,Variant,self-cleavage
1,U6G U31G,0.429
2,G28U G42A,0.26
3,A32U G44U,0.885
4,A23C G47C,0.13
5,G28C G48A,0.405
6,C5G C27U,0.445
7,A4G G29A,0.819
8,C8A C14G,0.0608
9,U6A C21A,0.107
10,C14U G16A,0.871
11,U6G G39A,0.12
12,A2C G41C,0.0702
13,C5G G44A,0.642
14,G29U C46U,0.901
15,A23C A32G,0.187
16,U12G G28C,0.344
17,C21U A33U,0.0831
18,A10U G42C,0.543
19,G13U C25A,0.0642
20,U18G C20A,0.057
21,C19U C27A,0.176
22,A1C C3U,0.208
23,C19A U37C,0.0949
24,U12G G39U,0.247

row,Variant,self-cleavage
1,C9U U18C,0.0748
2,A30C G47A,0.577
3,A30C G47U,0.48
4,C19U G39A,0.28
5,A22C U37A,0.84
6,C14U U37C,0.602
7,C8G A35U,0.566
8,A2C C25A,0.0593
9,U6C C27G,0.0742
10,U6A A30C,0.428
11,C14A A35G,0.718
12,A2C C46U,0.0993
13,A2C C46G,0.0474
14,A2C A34G,0.0505
15,A2U A23G,0.0976
16,C19G U37C,0.138
17,G38U G43A,0.154
18,G7U G36A,0.0763
19,U31C G41C,0.306
20,G41U C46A,0.512
21,U31A A35C,0.889
22,A1C G39A,0.162
23,C3U U12G,0.391
24,A23G A35U,0.472

row,Variant,self-cleavage
1,C20G G48U,0.12
2,A1G A32U,0.459
3,C3G G17A,0.213
4,G36C G45U,0.257
5,U12A C25G,0.423
6,A2C G45C,0.0767
7,C14A G41C,0.294
8,A34C G38U,0.138
9,G24A C25A,0.115
10,A10G U31A,0.696
11,A10G U31G,0.994
12,U37C A40C,0.0942
13,C27A A35U,0.742
14,A23G,0.634
15,A40C G43C,0.157
16,A2U C19A,0.129
17,G7C G44C,0.0685
18,A11U G45A,1.13
19,A10U C26G,0.264
20,G17U A34U,0.159
21,A35G G39C,0.178
22,C9U A22U,0.313
23,U6A A33U,0.828
24,C21G G41C,0.577

row,Variant,self-cleavage
1,G38U G48A,0.854
2,A23C G45A,0.118
3,C21G,0.0865
4,G17C G44U,0.124
5,A2U U31A,0.605
6,A22U A23U,0.102
7,U6C C14U,0.473
8,A30G G38A,0.853
9,A23G A40G,0.123
10,C8U G13C,0.121
11,A40C G44A,0.298
12,C5A C19G,0.0385
13,G17U,0.497
14,A2G U12G,0.252
15,G7C U18C,0.0305
16,A10U G29A,1.08
17,C21A G24C,0.0911
18,U6G C19U,0.264
19,G36U G44C,0.372
20,A33G A40G,0.195
21,A23G G43C,0.125
22,U31G A34G,0.894
23,G29A G41U,0.461
24,G24C G41U,0.0978

row,Variant,self-cleavage
1,G24C G41C,0.0814
2,C15A G24U,0.0837
3,C3G A33U,0.526
4,G7C C9A,0.0747
5,A2C A4C,0.154
6,A2C A4G,0.0453
7,A4G A33C,0.721
8,G17C A35C,0.0982
9,U12G G45C,0.288
10,G38U G47A,0.564
11,C26U G28C,0.134
12,U6G A40U,0.181
13,C20A C26A,0.0889
14,U6G C8U,0.16
15,C3U G41U,0.14
16,C15U A22U,0.703
17,C21A G48U,0.154
18,A4U U12A,0.0897
19,G28A A34G,0.606
20,C20U G38A,0.802
21,C20U A33G,0.988
22,A4G G7U,0.052
23,C19A C46A,0.197
